Assay results: article PMC3902949

Target: Saccharomyces cerevisiae Rad51 protein (S. cerevisiae) (UniProt P25454)
Assay: SEC; 10 µM Rad51 and 20 µM Rad52 fragment incubated at room temperature for 1 h, or each protein alone; Superdex 200 10/300 GL in 20 mM Hepes-KOH pH 7.5, 0.1 M KCl, 0.5 mM EDTA, 10% glycerol, 2 mM 2-mercaptoethanol; peak fractions analysed by SDS-PAGE

Sequence of UniProt P25454 (P25454 whole entry, the tested form may be a part): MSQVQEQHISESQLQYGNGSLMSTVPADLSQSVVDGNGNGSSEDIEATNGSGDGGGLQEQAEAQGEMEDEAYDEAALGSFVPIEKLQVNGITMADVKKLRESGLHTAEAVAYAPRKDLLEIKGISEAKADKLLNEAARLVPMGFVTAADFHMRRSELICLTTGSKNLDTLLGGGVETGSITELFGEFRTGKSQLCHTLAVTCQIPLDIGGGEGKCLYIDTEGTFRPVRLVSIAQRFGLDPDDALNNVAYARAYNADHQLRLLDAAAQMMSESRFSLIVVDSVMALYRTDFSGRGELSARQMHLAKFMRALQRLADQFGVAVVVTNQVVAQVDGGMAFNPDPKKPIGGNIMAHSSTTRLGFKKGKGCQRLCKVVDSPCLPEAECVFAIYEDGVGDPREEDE

“Rad52^233–504 (C-terminal half of the Saccharomyces cerevisiae Rad52 protein) (domain or fragment)” gave a stoichiometry N of 1.
